# Reference: doi:10.1101/812099 (bioRxiv, 2019)
# T1: FUS-LC fused to mCherry (UniProt P35637 2-214)
# T1 sequence: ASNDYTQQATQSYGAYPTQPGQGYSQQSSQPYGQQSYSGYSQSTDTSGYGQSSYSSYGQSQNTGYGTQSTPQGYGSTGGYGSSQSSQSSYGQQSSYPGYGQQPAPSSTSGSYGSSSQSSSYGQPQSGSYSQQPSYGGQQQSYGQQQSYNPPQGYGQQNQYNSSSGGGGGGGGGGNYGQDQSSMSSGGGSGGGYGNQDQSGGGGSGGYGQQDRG
# T2: MBP-FUS (UniProt P35637 1-526)
# T2 sequence: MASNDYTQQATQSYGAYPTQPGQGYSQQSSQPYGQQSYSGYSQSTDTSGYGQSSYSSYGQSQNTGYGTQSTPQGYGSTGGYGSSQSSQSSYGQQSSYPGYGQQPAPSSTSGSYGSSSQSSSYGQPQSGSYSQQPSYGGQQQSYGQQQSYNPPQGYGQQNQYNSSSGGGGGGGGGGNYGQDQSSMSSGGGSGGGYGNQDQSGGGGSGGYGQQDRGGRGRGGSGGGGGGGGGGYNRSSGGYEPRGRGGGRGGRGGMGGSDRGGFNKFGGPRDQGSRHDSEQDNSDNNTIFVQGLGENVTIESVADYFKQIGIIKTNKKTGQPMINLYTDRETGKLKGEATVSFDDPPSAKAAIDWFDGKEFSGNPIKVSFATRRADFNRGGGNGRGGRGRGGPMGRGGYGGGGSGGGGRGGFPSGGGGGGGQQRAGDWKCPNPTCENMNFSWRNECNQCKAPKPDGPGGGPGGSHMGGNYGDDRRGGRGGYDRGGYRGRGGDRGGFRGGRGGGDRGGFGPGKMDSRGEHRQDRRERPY
# T3: Kapβ2 (UniProt Q92973-2 1-890)
# T3 sequence: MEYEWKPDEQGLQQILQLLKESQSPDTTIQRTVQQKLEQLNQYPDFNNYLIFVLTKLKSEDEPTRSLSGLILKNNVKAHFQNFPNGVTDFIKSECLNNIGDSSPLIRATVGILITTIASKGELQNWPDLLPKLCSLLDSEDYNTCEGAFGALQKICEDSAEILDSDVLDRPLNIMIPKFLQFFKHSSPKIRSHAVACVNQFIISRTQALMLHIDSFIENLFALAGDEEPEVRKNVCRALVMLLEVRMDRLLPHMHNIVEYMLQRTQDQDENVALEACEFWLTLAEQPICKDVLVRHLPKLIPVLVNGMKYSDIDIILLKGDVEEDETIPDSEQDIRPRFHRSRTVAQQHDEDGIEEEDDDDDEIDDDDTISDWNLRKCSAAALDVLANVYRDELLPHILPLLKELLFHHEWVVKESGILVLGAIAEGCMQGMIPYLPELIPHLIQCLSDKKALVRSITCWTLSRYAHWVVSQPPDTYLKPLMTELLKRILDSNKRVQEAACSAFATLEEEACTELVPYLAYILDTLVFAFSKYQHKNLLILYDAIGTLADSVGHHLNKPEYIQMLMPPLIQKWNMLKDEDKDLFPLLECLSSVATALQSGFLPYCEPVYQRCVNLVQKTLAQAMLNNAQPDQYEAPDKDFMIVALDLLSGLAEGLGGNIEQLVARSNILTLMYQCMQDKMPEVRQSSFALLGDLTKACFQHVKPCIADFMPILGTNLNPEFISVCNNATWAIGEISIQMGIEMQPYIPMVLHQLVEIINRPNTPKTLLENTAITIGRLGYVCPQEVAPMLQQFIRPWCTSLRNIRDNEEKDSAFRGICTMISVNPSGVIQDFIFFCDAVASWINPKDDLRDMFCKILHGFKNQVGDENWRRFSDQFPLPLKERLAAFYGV
# T4: GST-Kapβ2 (UniProt Q92973-2 1-890)
# T4 sequence: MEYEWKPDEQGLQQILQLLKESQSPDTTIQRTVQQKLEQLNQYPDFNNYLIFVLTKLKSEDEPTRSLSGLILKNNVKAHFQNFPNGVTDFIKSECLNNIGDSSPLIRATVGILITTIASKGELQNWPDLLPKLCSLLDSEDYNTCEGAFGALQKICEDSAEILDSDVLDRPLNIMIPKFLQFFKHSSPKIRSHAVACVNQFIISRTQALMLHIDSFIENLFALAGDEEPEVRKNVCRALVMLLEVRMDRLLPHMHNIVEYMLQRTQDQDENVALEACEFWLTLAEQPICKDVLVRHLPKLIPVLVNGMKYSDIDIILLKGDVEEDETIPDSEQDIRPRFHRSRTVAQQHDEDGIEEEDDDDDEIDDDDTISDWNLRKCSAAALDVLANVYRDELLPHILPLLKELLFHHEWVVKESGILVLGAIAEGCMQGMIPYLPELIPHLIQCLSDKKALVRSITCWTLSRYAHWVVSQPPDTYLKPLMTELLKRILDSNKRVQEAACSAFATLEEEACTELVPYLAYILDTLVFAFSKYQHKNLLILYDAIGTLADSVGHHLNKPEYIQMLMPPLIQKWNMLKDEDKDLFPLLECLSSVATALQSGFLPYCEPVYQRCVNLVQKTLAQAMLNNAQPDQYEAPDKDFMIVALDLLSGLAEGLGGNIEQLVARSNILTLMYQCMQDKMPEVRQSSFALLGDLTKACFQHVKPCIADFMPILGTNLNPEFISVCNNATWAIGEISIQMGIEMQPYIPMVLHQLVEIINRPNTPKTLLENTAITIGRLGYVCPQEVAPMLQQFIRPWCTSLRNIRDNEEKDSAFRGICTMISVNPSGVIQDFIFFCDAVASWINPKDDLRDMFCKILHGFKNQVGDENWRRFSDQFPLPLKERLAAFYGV
# B1: Kapβ2(ΔLoop) (natural protein)
# chain: MEYEWKPDEQGLQQILQLLKESQSPDTTIQRTVQQKLEQLNQYPDFNNYLIFVLTKLKSEDEPTRSLSGLILKNNVKAHFQNFPNGVTDFIKSECLNNIGDSSPLIRATVGILITTIASKGELQNWPDLLPKLCSLLDSEDYNTCEGAFGALQKICEDSAEILDSDVLDRPLNIMIPKFLQFFKHSSPKIRSHAVACVNQFIISRTQALMLHIDSFIENLFALAGDEEPEVRKNVCRALVMLLEVRMDRLLPHMHNIVEYMLQRTQDQDENVALEACEFWLTLAEQPICKDVLVRHLPKLIPVLVNGMKYSDIDIILLKGGGSGGSGSDWNLRKCSAAALDVLANVYRDELLPHILPLLKELLFHHEWVVKESGILVLGAIAEGCMQGMIPYLPELIPHLIQCLSDKKALVRSITCWTLSRYAHWVVSQPPDTYLKPLMTELLKRILDSNKRVQEAACSAFATLEEEACTELVPYLAYILDTLVFAFSKYQHKNLLILYDAIGTLADSVGHHLNKPEYIQMLMPPLIQKWNMLKDEDKDLFPLLECLSSVATALQSGFLPYCEPVYQRCVNLVQKTLAQAMLNNAQPDQYEAPDKDFMIVALDLLSGLAEGLGGNIEQLVARSNILTLMYQCMQDKMPEVRQSSFALLGDLTKACFQHVKPCIADFMPILGTNLNPEFISVCNNATWAIGEISIQMGIEMQPYIPMVLHQLVEIINRPNTPKTLLENTAITIGRLGYVCPQEVAPMLQQFIRPWCTSLRNIRDNEEKDSAFRGICTMISVNPSGVIQDFIFFCDAVASWINPKDDLRDMFCKILHGFKNQVGDENWRRFSDQFPLPLKERLAAFYGV
# What was measured:
# FUS-LC fused to mCherry = biological target: T1, FUS-LC fused to mCherry; experiment: hydrogel binding assay
# MBP-FUS = biological target: T2, MBP-FUS; experiment: ITC
# Kapβ2 [1] = biological target: T3, Kapβ2; experiment: NMR titration
# Kapβ2 [2] = biological target: T3, Kapβ2; experiment: hydrogel binding assay
# Kapβ2 [3] = biological target: T3, Kapβ2; experiment: pull-down
# GST-Kapβ2 = biological target: T4, GST-Kapβ2; experiment: pull-down
# Kapβ2(ΔLoop) = biological target: B1; experiment: ITC
binder,measurement,setting,value
GFP:FUS-LC (domain or fragment) ASNDYTQQATQSYGAYPTQPGQGYSQQSSQPYGQQSYSGYSQSTDTSGYGQSSYSSYGQSQNTGYGTQSTPQGYGSTGGYGSSQSSQSSYGQQSSYPGYGQQPAPSSTSGSYGSSSQSSSYGQPQSGSYSQQPSYGGQQQSYGQQQSYNPPQGYGQQNQYNSSSGGGGGGGGGGNYGQDQSSMSSGGGSGGGYGNQDQSGGGGSGGYGQQDRG,binding result,FUS-LC fused to mCherry,binds
B1,binding result,MBP-FUS,binds
PRPRPRPRPRPRPRPRPRPRPRPRPRPRPRPRPRPRPRPR [(Pro-Arg)20-HA],binding result,Kapβ2 [1],binds
GFP:hnRNPA2-LC (domain or fragment) MQEVQSSRSGRGGNFGFGDSRGGGGNFGPGPGSNFRGGSDGYGSGRGFGDGYNGYGGGPGGGNFGGSPGYGGGRGGYGGGGPGYGNQGGGYGGGYDNYGGGNYGSGNYNDFGNYNQQPSNYGPMKSGNFGGSRNMGGPYGGGNYGPGGSGGSGGYGGRSRY,binding result,Kapβ2 [2],binds
FUS(1-500) (domain or fragment) MASNDYTQQATQSYGAYPTQPGQGYSQQSSQPYGQQSYSGYSQSTDTSGYGQSSYSSYGQSQNTGYGTQSTPQGYGSTGGYGSSQSSQSSYGQQSSYPGYGQQPAPSSTSGSYGSSSQSSSYGQPQSGSYSQQPSYGGQQQSYGQQQSYNPPQGYGQQNQYNSSSGGGGGGGGGGNYGQDQSSMSSGGGSGGGYGNQDQSGGGGSGGYGQQDRGGRGRGGSGGGGGGGGGGYNRSSGGYEPRGRGGGRGGRGGMGGSDRGGFNKFGGPRDQGSRHDSEQDNSDNNTIFVQGLGENVTIESVADYFKQIGIIKTNKKTGQPMINLYTDRETGKLKGEATVSFDDPPSAKAAIDWFDGKEFSGNPIKVSFATRRADFNRGGGNGRGGRGRGGPMGRGGYGGGGSGGGGRGGFPSGGGGGGGQQRAGDWKCPNPTCENMNFSWRNECNQCKAPKPDGPGGGPGGSHMGGNYGDDRRGGRGGYDRGGYRGRGGDRGGFRGGRGG,binding result,Kapβ2 [1],binds
PRPRPRPRPRPRPRPRPRPRPRPRPRPRPRPRPRPR [GST-PR18],binding result,Kapβ2 [3],binds
PRPRPRPRPRPRPRPRPRPRPRPRPRPRPRPRPRPR [MBP-PR18],binding result,GST-Kapβ2,binds
same,Kd,Kapβ2(ΔLoop),81.3 nM
same,stoichiometry N,Kapβ2(ΔLoop),1
